Results reported in the supplement of paper PMC7125110.
± gives the standard error. For some assays here: Variants at the floor of the assay were thinned out.

B1: glmS ribozyme (parent)
chain: AUAAAAGCGCCAGAACUACAGAAAUGUAGUUGACGAGGAGGAGGUUUAUCGAAUUUUCGGCGGAUGCCUCCAAA

Assays:
Conditions in all cases: with glucosamine-6-phosphate
glucosamine-6-phosphate [1] = variants of: B1; experiment: kcat; higher = faster cleavage; RNA array
Procedure, shortened: (§1)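 A hybridised Cy3 probe tracked barcoded ribozyme variants, transcribed in situ by E. coli RNA polymerase on sequenced MiSeq chips, at 37 °C. The variants received 40 μM to 10 mM glucosamine-6-phosphate in HEPES/KCl/Mg(OAc)2 buffer. kobs came from decay fits and kcat and KM from weighted Michaelis–Menten fits.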

glucosamine-6-phosphate [2] = variants of: B1; experiment: KM; higher = weaker cofactor use; RNA array
Procedure, shortened: as §1

glucosamine-6-phosphate [3] = variants of: B1; experiment: self-cleavage kobs at 640 uM GlcN6P; higher = faster cleavage; RNA array
Procedure, shortened: as §1

glucosamine-6-phosphate [4] = variants of: B1; experiment: self-cleavage kobs at 2500 uM GlcN6P; higher = faster cleavage; RNA array
Procedure, shortened: as §1

glucosamine-6-phosphate [5] = variants of: B1; experiment: self-cleavage kobs at 10000 uM GlcN6P; higher = faster cleavage; RNA array
Procedure, shortened: as §1

glucosamine-6-phosphate [6] = variants of: B1; experiment: self-cleavage kobs at 40 uM GlcN6P; higher = faster cleavage; RNA array
Procedure, shortened: as §1

glucosamine-6-phosphate [7] = variants of: B1; experiment: self-cleavage kobs at 160 uM GlcN6P; higher = faster cleavage; RNA array
Procedure, shortened: as §1

Q: Which kcat (glucosamine-6-phosphate [1]) does the source give for AUAAAAGCGCCAGAACUACAGAAAUGUAGUUGACGUGGAGGAGGUUUAUCGAAAUUUCGGCGGAUGCCUCCAAA [A36U U54A] here?
A: < 1e-05 s⁻¹

Q: How did the kcat (glucosamine-6-phosphate [1]) turn out when AUAAAAGCGCCAGAACUACAGAAAUGUAGUUGACGAAGAGGAGGUUUAUCGAAUUUUCGGCGGAUGCUUCCAAA [G37A C68U] was run?
A: 6.89e-05 ± 7.5e-06 s⁻¹

Q: What about the KM (glucosamine-6-phosphate [2]) of the same variant?
A: 2.69 ± 0.82 mM

Q: What about the “self-cleavage kobs at 640 uM GlcN6P” value (glucosamine-6-phosphate [3]) of the same variant?
A: 1.94e-05 ± 7.7e-06 s⁻¹

Q: And the “self-cleavage kobs at 2500 uM GlcN6P” value (glucosamine-6-phosphate [4])?
A: 3.08e-05 ± 5.5e-06 s⁻¹

Q: And the “self-cleavage kobs at 10000 uM GlcN6P” value (glucosamine-6-phosphate [5])?
A: 5.51e-05 ± 6e-06 s⁻¹

Q: AUAAAAGCGCCAGAACUACAGAAAUGUAGUUGACGUGGAGGAGGUUUAUCGAAUUUUCGGCGGAUCCCUCCAAA [A36U G66C] was tested. Which kcat (glucosamine-6-phosphate [1]) did it give?
A: < 1e-05 s⁻¹

Q: What about the “self-cleavage kobs at 40 uM GlcN6P” value (glucosamine-6-phosphate [6]) of the same variant?
A: < 1e-05 s⁻¹

Q: And the “self-cleavage kobs at 160 uM GlcN6P” value (glucosamine-6-phosphate [7])?
A: < 1e-05 s⁻¹

Q: What does the source list for AUAAAAGCGCCAGAACUACAGAAAUGUAGUUGACGAAGAAGAGGUUUAUCGAAUUUUCGGCGGAUGCCUCCAAA [G37A G40A]?
A: kcat (glucosamine-6-phosphate [1]): 0.000755 ± 0.00012 s⁻¹; KM (glucosamine-6-phosphate [2]): 2.83 ± 0.82 mM; self-cleavage kobs at 160 uM GlcN6P (glucosamine-6-phosphate [7]): 3.73e-05 ± 1.3e-05 s⁻¹; self-cleavage kobs at 640 uM GlcN6P (glucosamine-6-phosphate [3]): 0.000135 ± 3.7e-05 s⁻¹; self-cleavage kobs at 2500 uM GlcN6P (glucosamine-6-phosphate [4]): 0.000366 ± 7.6e-05 s⁻¹; self-cleavage kobs at 10000 uM GlcN6P (glucosamine-6-phosphate [5]): 0.000583 ± 9.3e-05 s⁻¹

Q: How did the kcat (glucosamine-6-phosphate [1]) turn out when AUAAAAGCGCCAGAACUACAGAAAUGUAGUUGACGGGGAGGAGGUUUAUCGAAUUUUCGGCGUAUGCCUACAAA [A36G G63U C70A] was run?
A: 1.84e-05 ± 7.8e-06 s⁻¹

Q: For AUAAAAGCGCCAGAACUACAGAAAUGUAGUUGACGAAGAGGAGGUUUAUCGAUUUUUCGGCGGAUGCCUCUAAA [G37A A53U C71U], which kcat (glucosamine-6-phosphate [1]) is on record?
A: 0.00135 ± 0.00053 s⁻¹

Q: And the “self-cleavage kobs at 40 uM GlcN6P” value (glucosamine-6-phosphate [6])?
A: 7.9e-05 ± 3.8e-05 s⁻¹

Q: What about the “self-cleavage kobs at 640 uM GlcN6P” value (glucosamine-6-phosphate [3]) of the same variant?
A: 0.000464 ± 8.3e-05 s⁻¹

Q: What about the “self-cleavage kobs at 2500 uM GlcN6P” value (glucosamine-6-phosphate [4]) of the same variant?
A: 0.000695 ± 0.00015 s⁻¹

Q: And the “self-cleavage kobs at 10000 uM GlcN6P” value (glucosamine-6-phosphate [5])?
A: 0.00165 ± 0.00033 s⁻¹

Q: Which results are given for AUAAAAGCGCCAGAACUACAGAAAUGUAGUUGACGUGGAGGAGGUUUAUCGGAUUUUCGGCGGAUGCCUCCAAA [A36U A52G]?
A: kcat (glucosamine-6-phosphate [1]): 1.01e-05 ± 3e-06 s⁻¹; self-cleavage kobs at 40 uM GlcN6P (glucosamine-6-phosphate [6]): < 1e-05 s⁻¹; self-cleavage kobs at 10000 uM GlcN6P (glucosamine-6-phosphate [5]): < 1e-05 s⁻¹

Q: Which results are given for AUAAAAGCGCCAGAACUACAGAAAUGUAGUUGACGUGGAGGAGGUUUAUGGAAUUUUCGGCGGAUGCCGCCAAA [A36U C50G U69G]?
A: kcat (glucosamine-6-phosphate [1]): 0.000296 ± 5.6e-05 s⁻¹; self-cleavage kobs at 40 uM GlcN6P (glucosamine-6-phosphate [6]): 0.000397 ± 0.00012 s⁻¹; self-cleavage kobs at 160 uM GlcN6P (glucosamine-6-phosphate [7]): 0.000219 ± 6e-05 s⁻¹; self-cleavage kobs at 640 uM GlcN6P (glucosamine-6-phosphate [3]): 0.00036 ± 0.00012 s⁻¹; self-cleavage kobs at 2500 uM GlcN6P (glucosamine-6-phosphate [4]): 0.000275 ± 0.00013 s⁻¹; self-cleavage kobs at 10000 uM GlcN6P (glucosamine-6-phosphate [5]): 0.000368 ± 8.1e-05 s⁻¹

Q: With AUAAAAGCGCCAGAACUACAGAAAUGUAGUUGACGUGGAGGAGGAUUAUGGAAUUUUCGGCGGAUGCCUCCAAA [A36U U45A C50G] as the variant, how does the kcat (glucosamine-6-phosphate [1]) read?
A: < 1e-05 s⁻¹

Q: And the “self-cleavage kobs at 640 uM GlcN6P” value (glucosamine-6-phosphate [3])?
A: < 1e-05 s⁻¹

Q: What about the “self-cleavage kobs at 2500 uM GlcN6P” value (glucosamine-6-phosphate [4]) of the same variant?
A: < 1e-05 s⁻¹

Q: With AUAAAAGCGCCAGAACUACAGAAAUGUAGUUGACGAAGAGGAGGUUUAUCGGAUUUUCGGCGGAUGCCUCCAAA [G37A A52G] as the variant, how does the kcat (glucosamine-6-phosphate [1]) read?
A: 0.000162 ± 8.6e-06 s⁻¹

Q: And the KM (glucosamine-6-phosphate [2])?
A: 3.42 ± 0.44 mM

Q: And the “self-cleavage kobs at 2500 uM GlcN6P” value (glucosamine-6-phosphate [4])?
A: 6.77e-05 ± 1.2e-05 s⁻¹

Q: What about the “self-cleavage kobs at 10000 uM GlcN6P” value (glucosamine-6-phosphate [5]) of the same variant?
A: 0.000121 ± 1.5e-05 s⁻¹

Q: Which results are given for AUAAAAGCGCCAGAACUACAGAAAUGUAGUUGACGGGGAGGAGGUUUAUCGAAUUUUCGGCGGAUGCCGCCAAA [A36G U69G]?
A: kcat (glucosamine-6-phosphate [1]): 2.8e-05 ± 8.7e-06 s⁻¹; self-cleavage kobs at 160 uM GlcN6P (glucosamine-6-phosphate [7]): 3.18e-05 ± 1.6e-05 s⁻¹; self-cleavage kobs at 640 uM GlcN6P (glucosamine-6-phosphate [3]): 4.85e-05 ± 1.9e-05 s⁻¹

Q: AUAAAAGCGCCAGAACUACAGAAAUGUAGUUGACGGGGAGGAGGAUUAUCGAAUUUUCGGCGGAUGCCUCCAAA [A36G U45A] was tested. Which kcat (glucosamine-6-phosphate [1]) did it give?
A: 3.07e-05 ± 8.9e-06 s⁻¹

Q: Which results are given for AUAAAAGCGCCAGAACUACAGAAAUGUAGUUGACGAAUAGGAGGUUUAUCGAAUUUUCGGCGGAUGCCUCCAAA [G37A G38U]?
A: kcat (glucosamine-6-phosphate [1]): < 1e-05 s⁻¹; self-cleavage kobs at 160 uM GlcN6P (glucosamine-6-phosphate [7]): < 1e-05 s⁻¹

Q: For AUAAAAGCGCCAGAACUACAGAAAUGUAGUUGACGAAGAGGAGGUUUAUCGAAUUUUCGGCGGAUGCCUACAAA [G37A C70A], which kcat (glucosamine-6-phosphate [1]) is on record?
A: 1.38e-05 ± 4.2e-06 s⁻¹

Q: What about the “self-cleavage kobs at 40 uM GlcN6P” value (glucosamine-6-phosphate [6]) of the same variant?
A: < 1e-05 s⁻¹

Q: How did the kcat (glucosamine-6-phosphate [1]) turn out when AUAAAAGCGCCAGAACUACAGAAAUGUAGUUGACGAAGAGGAGGUUUAUCGAAUUUUCGGCGGAUGCCUUCAAA [G37A C70U] was run?
A: 0.00286 ± 0.00083 s⁻¹

Q: And the KM (glucosamine-6-phosphate [2])?
A: 3.8 ± 1.5 mM

Q: What about the “self-cleavage kobs at 40 uM GlcN6P” value (glucosamine-6-phosphate [6]) of the same variant?
A: 4.27e-05 ± 6.4e-06 s⁻¹

Q: What about the “self-cleavage kobs at 160 uM GlcN6P” value (glucosamine-6-phosphate [7]) of the same variant?
A: 9.55e-05 ± 1.5e-05 s⁻¹

Q: What about the “self-cleavage kobs at 640 uM GlcN6P” value (glucosamine-6-phosphate [3]) of the same variant?
A: 0.000383 ± 4.9e-05 s⁻¹

Q: What about the “self-cleavage kobs at 2500 uM GlcN6P” value (glucosamine-6-phosphate [4]) of the same variant?
A: 0.0018 ± 0.00029 s⁻¹

Q: What about the “self-cleavage kobs at 10000 uM GlcN6P” value (glucosamine-6-phosphate [5]) of the same variant?
A: 0.00199 ± 0.00021 s⁻¹

Q: What does the source list for AUAAAAGCGCCAGAACUACAGAAAUGUAGUUGACGAAGAGAAGGUUUAUCGAAUUUUCGGCGGAUGCCUCCAAA [G37A G41A]?
A: kcat (glucosamine-6-phosphate [1]): 0.000353 ± 0.00012 s⁻¹; self-cleavage kobs at 160 uM GlcN6P (glucosamine-6-phosphate [7]): 3.21e-05 ± 1.4e-05 s⁻¹; self-cleavage kobs at 640 uM GlcN6P (glucosamine-6-phosphate [3]): 3.79e-05 ± 9.7e-06 s⁻¹; self-cleavage kobs at 2500 uM GlcN6P (glucosamine-6-phosphate [4]): 0.00016 ± 2.5e-05 s⁻¹; self-cleavage kobs at 10000 uM GlcN6P (glucosamine-6-phosphate [5]): 0.000229 ± 4.8e-05 s⁻¹

Q: Which kcat (glucosamine-6-phosphate [1]) does the source give for AUAAAAGCGCCAGAACUACAGAAAUGUAGUUGACGUGAAGGAGGUUUAUCGAAUUUUCGGCGGAUGCCUCCAAA [A36U G38A] here?
A: < 1e-05 s⁻¹

Q: Which results are given for AUAAAAGCGCCAGAACUACAGAAAUGUAGUUGACGUGUAGGAGGUUUAUCGAAUUUUCGGCGGAUGCCUCCAAA [A36U G38U]?
A: kcat (glucosamine-6-phosphate [1]): < 1e-05 s⁻¹; self-cleavage kobs at 10000 uM GlcN6P (glucosamine-6-phosphate [5]): < 1e-05 s⁻¹

Q: How did the kcat (glucosamine-6-phosphate [1]) turn out when AUAAAAGCGCCAGAACUACAGAAAUGUAGUUGACGAAGAGGAGGUUUAUCGACUUUUCGGCGGAUGCCUCCAAA [G37A A53C] was run?
A: 0.000609 ± 7.9e-05 s⁻¹

Q: And the KM (glucosamine-6-phosphate [2])?
A: 3.03 ± 0.74 mM

Q: And the “self-cleavage kobs at 640 uM GlcN6P” value (glucosamine-6-phosphate [3])?
A: 0.00012 ± 2.1e-05 s⁻¹

Q: And the “self-cleavage kobs at 2500 uM GlcN6P” value (glucosamine-6-phosphate [4])?
A: 0.00027 ± 3.6e-05 s⁻¹

Q: And the “self-cleavage kobs at 10000 uM GlcN6P” value (glucosamine-6-phosphate [5])?
A: 0.000468 ± 5.8e-05 s⁻¹

Q: Which results are given for AUAAAAGCGCCAGAACUACAGAAAUGUAGUUGACGAAGAGGAGGUUUAUCGAUUUUUCGGCGGAUGCCUCCAAA [G37A A53U]?
A: kcat (glucosamine-6-phosphate [1]): 0.00237 ± 0.00046 s⁻¹; KM (glucosamine-6-phosphate [2]): 3.52 ± 0.93 mM; self-cleavage kobs at 40 uM GlcN6P (glucosamine-6-phosphate [6]): 4.73e-05 ± 1.1e-05 s⁻¹; self-cleavage kobs at 160 uM GlcN6P (glucosamine-6-phosphate [7]): 9.91e-05 ± 1.2e-05 s⁻¹; self-cleavage kobs at 640 uM GlcN6P (glucosamine-6-phosphate [3]): 0.000367 ± 3.5e-05 s⁻¹; self-cleavage kobs at 2500 uM GlcN6P (glucosamine-6-phosphate [4]): 0.000924 ± 0.0001 s⁻¹; self-cleavage kobs at 10000 uM GlcN6P (glucosamine-6-phosphate [5]): 0.00185 ± 0.00023 s⁻¹

Q: AUAAAAGCGCCAGAACUACAGAAAUGUAGUUGACGUGGAGGAGGUUUAUCGAAUUUUCGGCGGCUGCCUCCAAA [A36U A64C] was tested. Which kcat (glucosamine-6-phosphate [1]) did it give?
A: < 1e-05 s⁻¹

Q: And the “self-cleavage kobs at 40 uM GlcN6P” value (glucosamine-6-phosphate [6])?
A: < 1e-05 s⁻¹

Q: What about the “self-cleavage kobs at 160 uM GlcN6P” value (glucosamine-6-phosphate [7]) of the same variant?
A: < 1e-05 s⁻¹

Q: What about the “self-cleavage kobs at 2500 uM GlcN6P” value (glucosamine-6-phosphate [4]) of the same variant?
A: < 1e-05 s⁻¹

Q: And the “self-cleavage kobs at 10000 uM GlcN6P” value (glucosamine-6-phosphate [5])?
A: < 1e-05 s⁻¹
